Laboratory results published in patent US20250282820A1, “PEPTIDE COMPLEX HAVING TRKB BINDING ACTIVITY” (PEPTIDREAM INC, priority 2022, published 2025).
One block for each molecule: values may come before it. *1 amine or outer side, *2 acyl side, *3 side chain or, on linkers, in order; H or OH if unused. Where a SMILES comes first, the peptide text is derived from it. Bridges are numbered along the chain shown (N, C = ends). Roman numbers before positions name the chains, in order. Where no end group is shown, it is not given here. [ ]: non-standard residue; d: D form. CO(CH2CH2O)9CH2CH2CO = O=C(CCOCCOCCOCCOCCOCCOCCOCCOCCOCCC(=O)[*:2])[*:1]; 3Pal = N[C@@H](Cc1cccnc1)C(=O)O

Experiments:
TrkB = TrkB (Homo sapiens, UniProt Q16620); assay: PathHunter eXpress TrkB Functional Assay (phosphorylation of TrkB); assay type: cell-based; settings: maximum signal induced by BDNF = 100%; stimulation for 3 hours
Procedure: To evaluate the TrkB activation potency of the TrkB agonist peptide of the present invention, the phosphorylation of TrkB was examined. The PathHunter (registered trademark) eXpress TrkB Functional Assay kit (DiscoverX; cells, 96-well plate, medium, and detection reagents included) was used and the evaluation was performed according to the attached protocols. The frozen cells were thawed and suspended in the medium, then seeded into a 96-well plate at 10,000 cells per well and incubated for 48 hours. Thereafter, Recombinant Human BDNF Protein (R&D Systems) or a peptide was added, and after stimulation for 3 hours, a detection reagent was added. The reaction was performed while protected from the light at room temperature for 60 minutes, and luminescent signals were measured using a SpectraMax Paradigm Multi-Mode Microplate Reader (Molecular Devices). The obtained signals were analyzed with GraphPad Prism, and the activity (%) was calculated with the maximum value of the signals induced by BDNF as 100% and a signal with no stimulation as 0%.
The BDNF was evaluated at 8 points (0.006 nM to 100 nM) from 100 nM using 4-fold dilutions. The peptide was evaluated in the measurement ranges A to C shown below. • Measurement range A=6 points from 100 nM using 5-fold dilutions (0.032 nM to 100 nM) • Measurement range B=8 points from 100 nM using 4-fold dilutions (0.006104 nM to 100 nM) • Measurement range C=4 points from 10 nM using 10-fold dilutions (0.01 nM to 10 nM)

[1] = target: TrkB of the cells of the PathHunter eXpress TrkB Functional Assay kit (DiscoverX) (UniProt Q16620 32-822, limits assumed); assay: cell-based or functional assay
Chain of TrkB of the cells of the PathHunter eXpress TrkB Functional Assay kit (DiscoverX) (Q16620 32-822 limits assumed): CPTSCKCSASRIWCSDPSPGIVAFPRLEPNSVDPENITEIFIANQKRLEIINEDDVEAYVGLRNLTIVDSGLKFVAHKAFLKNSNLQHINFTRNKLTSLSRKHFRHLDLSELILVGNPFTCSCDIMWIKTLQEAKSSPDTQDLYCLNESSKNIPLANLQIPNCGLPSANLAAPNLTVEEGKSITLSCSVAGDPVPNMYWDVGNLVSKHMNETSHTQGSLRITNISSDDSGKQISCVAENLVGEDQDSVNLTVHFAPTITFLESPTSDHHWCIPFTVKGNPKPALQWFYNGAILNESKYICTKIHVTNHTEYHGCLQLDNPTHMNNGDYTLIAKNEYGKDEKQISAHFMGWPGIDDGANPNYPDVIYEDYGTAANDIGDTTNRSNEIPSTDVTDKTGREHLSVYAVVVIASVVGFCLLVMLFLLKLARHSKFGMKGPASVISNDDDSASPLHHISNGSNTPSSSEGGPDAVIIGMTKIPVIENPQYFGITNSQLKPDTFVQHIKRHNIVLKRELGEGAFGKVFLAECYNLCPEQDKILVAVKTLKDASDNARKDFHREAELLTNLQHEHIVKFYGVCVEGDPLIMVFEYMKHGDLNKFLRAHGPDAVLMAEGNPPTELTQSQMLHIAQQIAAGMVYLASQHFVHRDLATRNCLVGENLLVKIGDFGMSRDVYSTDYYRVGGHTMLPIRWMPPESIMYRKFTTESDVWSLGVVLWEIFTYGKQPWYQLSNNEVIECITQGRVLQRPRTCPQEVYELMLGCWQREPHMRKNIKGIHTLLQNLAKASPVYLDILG

Chain of TrkB (Q16620 32-822): as the sequence (Q16620 32-822 limits assumed) above

Molecule: CC(C)[C@@H]1NC(=O)[C@H](Cc2cccnc2)NC(=O)[C@H](CCC(=O)O)NC(=O)[C@H](CO)NC(=O)[C@H](Cc2ccc(O)cc2)NC(=O)[C@H]([C@@H](C)O)NC(=O)[C@@H]2CCCN2C(=O)[C@H](Cc2c[nH]c3ccccc23)NC(=O)[C@H](Cc2cccnc2)NC(=O)[C@H](Cc2ccc(O)cc2)NC(=O)[C@@H]2CCCN2C(=O)[C@H](CO)NC(=O)[C@H](Cc2ccccc2)NC(=O)CSC[C@@H](C(=O)NCC(=O)N[C@@H](CCCCNC(=O)CCOCCOCCOCCOCCOCCOCCOCCOCCOCCC(=O)NCCCC[C@H](NC(=O)CNC(=O)[C@@H]2CSCC(=O)N[C@@H](Cc3ccccc3)C(=O)N[C@@H](CO)C(=O)N3CCC[C@H]3C(=O)N[C@@H](Cc3ccc(O)cc3)C(=O)N[C@@H](Cc3cccnc3)C(=O)N[C@@H](Cc3c[nH]c4ccccc34)C(=O)N3CCC[C@H]3C(=O)N[C@@H]([C@@H](C)O)C(=O)N[C@@H](Cc3ccc(O)cc3)C(=O)N[C@@H](CO)C(=O)N[C@@H](CCC(=O)O)C(=O)N[C@@H](Cc3cccnc3)C(=O)N[C@@H](C(C)C)C(=O)N[C@@H](CCC(=O)O)C(=O)N2)C(N)=O)C(N)=O)NC(=O)[C@H](CCC(=O)O)NC1=O [compound 47] (I: {CH2CO}-FSPY[3Pal]WPTYSE[3Pal]VECGK-NH2 / II: {CH2CO}-FSPY[3Pal]WPTYSE[3Pal]VECGK-NH2; linker I:17-II:17 via CO(CH2CH2O)9CH2CH2CO; thioether I:N-I:15, II:N-II:15)
Emax (TrkB): 107%

PathHunter EC50 [1]: 0.29 nM
PathHunter Emax (BDNF maximum = 100%) [1]: 104%
B1: peptide complex, dimer structure No. 15 (peptide sequence No. 15 + linker structure No. 2) (peptide)
peptide: {CH2CO}-FSPY[3Pal]WPTYSE[3Pal]VECG
modifications: thioether N-15; also: homodimer via linker No. 2 (PEG8c-K-PEG8c) at Gly16

PathHunter EC50 [1]: 0.197 nM
PathHunter Emax (BDNF maximum = 100%) [1]: 86%
B2: peptide complex, dimer structure No. 14 (peptide sequence No. 14 + linker structure No. 2) (peptide)
peptide: {CH2CO}-FLPY[3Pal]WPTYSE[3Pal]VECG
modifications: thioether N-15; also: homodimer via linker No. 2 (PEG8c-K-PEG8c) at Gly16

PathHunter EC50 [1]: 0.556 nM
PathHunter Emax (BDNF maximum = 100%) [1]: 107%
B3: peptide complex, dimer structure No. 47 (peptide sequence No. 15 + linker structure No. 6) (peptide)
peptide: {CH2CO}-FSPY[3Pal]WPTYSE[3Pal]VECG
modifications: thioether N-15; also: homodimer via linker No. 6 (K-cPEG9c-K) at Gly16

PathHunter EC50 [1]: 0.599 nM
PathHunter Emax (BDNF maximum = 100%) [1]: 106%
B4: peptide complex, dimer structure No. 51 (peptide sequence No. 15 + linker structure No. 10) (peptide)
peptide: {CH2CO}-FSPY[3Pal]WPTYSE[3Pal]VECG
modifications: thioether N-15; also: homodimer via linker No. 10 (PEG2c-K-cPEG1c-K-PEG2c) at Gly16

PathHunter EC50 [1]: 0.26 nM
PathHunter Emax (BDNF maximum = 100%) [1]: 93%
B5: peptide complex, dimer structure No. 18 (peptide sequence No. 18 + linker structure No. 2) (peptide)
peptide: {CH2CO}-FEPY[3Pal]WPTYSE[3Pal]VSCG
modifications: thioether N-15; also: homodimer via linker No. 2 (PEG8c-K-PEG8c) at Gly16

PathHunter EC50 [1]: 0.581 nM
PathHunter Emax (BDNF maximum = 100%) [1]: 104%
B6: peptide complex, dimer structure No. 55 (peptide sequence No. 15 + linker structure No. 14) (peptide)
peptide: {CH2CO}-FSPY[3Pal]WPTYSE[3Pal]VECG
modifications: thioether N-15; also: homodimer via linker No. 14 (K-OCOPEG13OCO-K) at Gly16

PathHunter EC50 [1]: 0.644 nM
PathHunter Emax (BDNF maximum = 100%) [1]: 107%
B7: peptide complex, dimer structure No. 49 (peptide sequence No. 15 + linker structure No. 8) (peptide)
peptide: {CH2CO}-FSPY[3Pal]WPTYSE[3Pal]VECG
modifications: thioether N-15; also: homodimer via linker No. 8 (K-cPEG17c-K) at Gly16

PathHunter Emax (BDNF maximum = 100%) [1]: 89%
B8: peptide complex, dimer structure No. 3 (peptide sequence No. 3 + linker structure No. 3) (peptide)
peptide: {CH2CO}-FLPY[3Pal]WPTYSL[3Pal]VWCG
modifications: thioether N-15; also: homodimer via linker No. 3 (PEG12c-K-PEG12c) at Gly16

PathHunter EC50 [1]: 0.669 nM
PathHunter Emax (BDNF maximum = 100%) [1]: 99%
B9: peptide complex, dimer structure No. 57 (peptide sequence No. 17 + linker structure No. 14) (peptide)
peptide: {CH2CO}-FEPY[3Pal]WPTYSE[3Pal]VECG
modifications: thioether N-15; also: homodimer via linker No. 14 (K-OCOPEG13OCO-K) at Gly16

PathHunter Emax (BDNF maximum = 100%) [1]: 89%
B10: peptide complex, dimer structure No. 2 (peptide sequence No. 3 + linker structure No. 2) (peptide)
peptide: {CH2CO}-FLPY[3Pal]WPTYSL[3Pal]VWCG
modifications: thioether N-15; also: homodimer via linker No. 2 (PEG8c-K-PEG8c) at Gly16

PathHunter EC50 [1]: 0.354 nM
PathHunter Emax (BDNF maximum = 100%) [1]: 96%
B11: peptide complex, dimer structure No. 33 (peptide sequence No. 15 + linker structure No. 4) (peptide)
peptide: {CH2CO}-FSPY[3Pal]WPTYSE[3Pal]VECG
modifications: thioether N-15; also: homodimer via linker No. 4 (PEG8c-K-cPEG1c-K-PEG8c) at Gly16
